Our source for the Kd and EC50 values is patent US20120276104A1 (F STAR BIOTECHNOLOGISCHE FORSCHUNGS UND ENTWICKLUNGSGES M B …, published 2012).

In test [1] the target is T1, recombinant soluble HER-2 protein (human, UniProt P04626 23-652, limits assumed).
T1 construct: Described only as 'recombinant soluble HER-2 protein'; also called recombinant HER-2
Nature of the test: SPR (Biacore), soluble HER-2 coated on CM-5 chip, Fcab injected at 0.8-25 ug/ml, 1:1 model; SPR, recombinant soluble HER-2 on the chip. As for the experimental part: (§1) CM-5 chips are coated with increasing concentrations of recombinant soluble HER-2 protein. […] Then, buffer is injected to measure the off-rate of the binding reaction. The binding affinity (KD) is calculated using the BiaEval software using a 1:1 stochiometry model. […] Unbound Fcab is removed by two washing steps in FACS buffer. Cell bound Fcab is detected by incubation of the cells with polyclonal anti-human IgG antibodies coupled to phycoerythrin (SIGMA) for 30 minutes on ice as recommended by the manufacturer. Again, unbound detection antibodies are removed by two washing steps as above. Fcab binding is enumerated by flow cytometry by plotting the mean fluorescence intensity against the Fcab concentrations (FIG. 1, left panel).
Background: Surface plasmon resonance follows binding to a sensor surface in real time, without labels.

In test [2] the target is T2, HER-2 expressed on human tumor cells (human, UniProt P04626 23-1255).
T2 construct: whole, on cells; also called Her-2/neu; HER-2 on SKBR3, BT474 and HCC1954 cells
Nature of the test: flow cytometry on SKBR3 cells, detection with anti-human IgG-phycoerythrin, MFI against Fcab concentration; flow cytometry, HER-2 on SKBR3 cells. Here is the method:
as §1

B1: Fcab H561-4 (other)
chain: TCPPCPAPELLGGPSVFLFPPKPKDTLMISRTPEVTCVVVDVSHEDPEVKFNWYVDGVEVHNAKTKPREEQYNSTYRVVSVLTVLHQDWLNGKEYKCKVSNKALPAPIEKTISKAKGQPREPQVYTLPPSRDEFFTYWVSLTCLVKGFYPSDIAVEWESNGQPENNYKTTPPVLDSDGSFFLYSKLTVDRRRWTAGNVFSCSVMHEALHNHYTQKSLSLSPGK
notes: also called Her-2 specific Fcab clone H561-4
As usually defined, the Kd is the concentration at which binding is half-saturated. In general, EC50 refers to the concentration that produces a half-maximal response. Regarding B1, the Kd in test [1] was determined as 7.5 nM. In test [2], this molecule displayed an EC50 of 2 nM.
